Measured values as given in article PMC6510891, “Functional duplication of Rap1 in methylotrophic yeasts”.

Legend:
[1] = target: T1, HpRap1A (Hansenula polymorpha DL-1, UniProt W1Q7Z6 1-613); test: SPR; kinetic fit; equilibrium Kd 38±15; SPR: 10 mM HEPES-NaOH pH 7.5, 150 mM NaCl, 0.5 mM DTT, 0.05% Tween 20, 1 mg/ml BSA, 0.02 mg/ml salmon sperm DNA; competition 2 nM protein with 20 or 200 nM competitor. EMSA: 20 mM HEPES-NaOH pH 7.5, 50 mM NaCl, 0.2 mg/ml BSA, 5% glycerol, 0.1 mg/ml salmon sperm DNA, room temperature; settings: protein: recombinant; 3' overhang 20 nt on strand 2
T1 sequence: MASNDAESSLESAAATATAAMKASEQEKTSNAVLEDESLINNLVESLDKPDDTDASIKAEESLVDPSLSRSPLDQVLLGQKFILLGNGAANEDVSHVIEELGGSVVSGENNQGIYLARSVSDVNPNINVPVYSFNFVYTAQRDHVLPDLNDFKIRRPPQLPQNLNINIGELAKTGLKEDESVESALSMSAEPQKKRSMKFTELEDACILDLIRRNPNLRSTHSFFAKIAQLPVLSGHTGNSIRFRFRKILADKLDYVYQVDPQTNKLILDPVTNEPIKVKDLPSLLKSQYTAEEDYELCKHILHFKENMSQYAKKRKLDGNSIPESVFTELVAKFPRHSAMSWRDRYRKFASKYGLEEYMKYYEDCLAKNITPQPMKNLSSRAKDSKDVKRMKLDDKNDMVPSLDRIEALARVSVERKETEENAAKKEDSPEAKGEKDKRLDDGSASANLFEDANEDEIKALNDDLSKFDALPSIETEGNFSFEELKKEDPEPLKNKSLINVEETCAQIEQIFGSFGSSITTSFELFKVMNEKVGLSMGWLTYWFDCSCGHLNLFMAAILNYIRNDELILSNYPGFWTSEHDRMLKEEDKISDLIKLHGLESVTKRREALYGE

[2] = target: T1, HpRap1A; test: SPR; kinetic fit; equilibrium Kd 12±3; SPR: 10 mM HEPES-NaOH pH 7.5, 150 mM NaCl, 0.5 mM DTT, 0.05% Tween 20, 1 mg/ml BSA, 0.02 mg/ml salmon sperm DNA; competition 2 nM protein with 20 or 200 nM competitor. EMSA: 20 mM HEPES-NaOH pH 7.5, 50 mM NaCl, 0.2 mg/ml BSA, 5% glycerol, 0.1 mg/ml salmon sperm DNA, room temperature; settings: protein: recombinant; 3' overhang 20 nt on strand 2
[3] = target: T2, HpRap1B (Hansenula polymorpha DL-1, UniProt W1QDN2 1-576); test: SPR; SPR: 10 mM HEPES-NaOH pH 7.5, 150 mM NaCl, 0.5 mM DTT, 0.05% Tween 20, 1 mg/ml BSA, 0.02 mg/ml salmon sperm DNA; competition 2 nM protein with 20 or 200 nM competitor. EMSA: 20 mM HEPES-NaOH pH 7.5, 50 mM NaCl, 0.2 mg/ml BSA, 5% glycerol, 0.1 mg/ml salmon sperm DNA, room temperature; settings: protein: recombinant; 3' overhang 20 nt on strand 2
T2 sequence: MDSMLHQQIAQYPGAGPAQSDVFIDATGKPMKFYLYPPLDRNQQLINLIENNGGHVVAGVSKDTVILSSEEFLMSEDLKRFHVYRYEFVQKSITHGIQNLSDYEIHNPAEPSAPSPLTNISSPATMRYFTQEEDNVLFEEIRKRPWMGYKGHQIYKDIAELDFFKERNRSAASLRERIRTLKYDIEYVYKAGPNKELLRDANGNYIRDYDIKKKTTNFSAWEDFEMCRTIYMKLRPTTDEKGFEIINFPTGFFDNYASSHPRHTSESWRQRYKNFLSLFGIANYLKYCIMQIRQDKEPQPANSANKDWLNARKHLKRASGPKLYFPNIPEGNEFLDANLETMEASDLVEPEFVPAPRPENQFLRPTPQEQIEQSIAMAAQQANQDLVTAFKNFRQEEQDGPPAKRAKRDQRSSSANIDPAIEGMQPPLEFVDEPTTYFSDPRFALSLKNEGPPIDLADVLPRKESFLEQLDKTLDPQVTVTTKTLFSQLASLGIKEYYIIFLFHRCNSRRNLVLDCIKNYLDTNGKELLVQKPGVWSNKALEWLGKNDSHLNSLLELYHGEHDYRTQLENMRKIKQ

[4] = target: T2, HpRap1B; test: EMSA; up to 250 nM protein, 50 nM DNA; SPR: 10 mM HEPES-NaOH pH 7.5, 150 mM NaCl, 0.5 mM DTT, 0.05% Tween 20, 1 mg/ml BSA, 0.02 mg/ml salmon sperm DNA; competition 2 nM protein with 20 or 200 nM competitor. EMSA: 20 mM HEPES-NaOH pH 7.5, 50 mM NaCl, 0.2 mg/ml BSA, 5% glycerol, 0.1 mg/ml salmon sperm DNA, room temperature; settings: protein: recombinant; label: 5' FAM on strand 1; blunt
[5] = target: T1, HpRap1A; test: as above; settings: protein: recombinant; label: 5' FAM on strand 1; blunt
[6] = target: T2, HpRap1B; test: SPR; kinetic fit; equilibrium Kd 65±2; SPR: 10 mM HEPES-NaOH pH 7.5, 150 mM NaCl, 0.5 mM DTT, 0.05% Tween 20, 1 mg/ml BSA, 0.02 mg/ml salmon sperm DNA; competition 2 nM protein with 20 or 200 nM competitor. EMSA: 20 mM HEPES-NaOH pH 7.5, 50 mM NaCl, 0.2 mg/ml BSA, 5% glycerol, 0.1 mg/ml salmon sperm DNA, room temperature; settings: protein: recombinant; 3' overhang 20 nt on strand 2
[7] = target: T1, HpRap1A; test: SPR; kinetic fit; SPR: 10 mM HEPES-NaOH pH 7.5, 150 mM NaCl, 0.5 mM DTT, 0.05% Tween 20, 1 mg/ml BSA, 0.02 mg/ml salmon sperm DNA; competition 2 nM protein with 20 or 200 nM competitor. EMSA: 20 mM HEPES-NaOH pH 7.5, 50 mM NaCl, 0.2 mg/ml BSA, 5% glycerol, 0.1 mg/ml salmon sperm DNA, room temperature; settings: protein: recombinant; 3' overhang 20 nt on strand 2
[8] = target: T2, HpRap1B; test: SPR; kinetic fit; equilibrium Kd 1.7±0.2; SPR: 10 mM HEPES-NaOH pH 7.5, 150 mM NaCl, 0.5 mM DTT, 0.05% Tween 20, 1 mg/ml BSA, 0.02 mg/ml salmon sperm DNA; competition 2 nM protein with 20 or 200 nM competitor. EMSA: 20 mM HEPES-NaOH pH 7.5, 50 mM NaCl, 0.2 mg/ml BSA, 5% glycerol, 0.1 mg/ml salmon sperm DNA, room temperature; settings: protein: recombinant; 3' overhang 20 nt on strand 2
[9] = target: T1, HpRap1A; test: SPR; SPR: 10 mM HEPES-NaOH pH 7.5, 150 mM NaCl, 0.5 mM DTT, 0.05% Tween 20, 1 mg/ml BSA, 0.02 mg/ml salmon sperm DNA; competition 2 nM protein with 20 or 200 nM competitor. EMSA: 20 mM HEPES-NaOH pH 7.5, 50 mM NaCl, 0.2 mg/ml BSA, 5% glycerol, 0.1 mg/ml salmon sperm DNA, room temperature; settings: protein: recombinant; 3' overhang 20 nt on strand 2
[10] = target: T2, HpRap1B; test: competition SPR; score +++ vs PICKU surface; SPR: 10 mM HEPES-NaOH pH 7.5, 150 mM NaCl, 0.5 mM DTT, 0.05% Tween 20, 1 mg/ml BSA, 0.02 mg/ml salmon sperm DNA; competition 2 nM protein with 20 or 200 nM competitor. EMSA: 20 mM HEPES-NaOH pH 7.5, 50 mM NaCl, 0.2 mg/ml BSA, 5% glycerol, 0.1 mg/ml salmon sperm DNA, room temperature; settings: protein: recombinant; blunt
[11] = target: T1, HpRap1A; test: competition SPR; score - vs VIIrAbs surface; SPR: 10 mM HEPES-NaOH pH 7.5, 150 mM NaCl, 0.5 mM DTT, 0.05% Tween 20, 1 mg/ml BSA, 0.02 mg/ml salmon sperm DNA; competition 2 nM protein with 20 or 200 nM competitor. EMSA: 20 mM HEPES-NaOH pH 7.5, 50 mM NaCl, 0.2 mg/ml BSA, 5% glycerol, 0.1 mg/ml salmon sperm DNA, room temperature; settings: protein: recombinant; blunt
[12] = target: T1, HpRap1A; test: SPR; kinetic fit; equilibrium Kd 1.8±0.5; SPR: 10 mM HEPES-NaOH pH 7.5, 150 mM NaCl, 0.5 mM DTT, 0.05% Tween 20, 1 mg/ml BSA, 0.02 mg/ml salmon sperm DNA; competition 2 nM protein with 20 or 200 nM competitor. EMSA: 20 mM HEPES-NaOH pH 7.5, 50 mM NaCl, 0.2 mg/ml BSA, 5% glycerol, 0.1 mg/ml salmon sperm DNA, room temperature; settings: protein: recombinant; 3' overhang 20 nt on strand 2
[13] = target: T2, HpRap1B; test: SPR; kinetic fit; equilibrium Kd 1.9±0.1; SPR: 10 mM HEPES-NaOH pH 7.5, 150 mM NaCl, 0.5 mM DTT, 0.05% Tween 20, 1 mg/ml BSA, 0.02 mg/ml salmon sperm DNA; competition 2 nM protein with 20 or 200 nM competitor. EMSA: 20 mM HEPES-NaOH pH 7.5, 50 mM NaCl, 0.2 mg/ml BSA, 5% glycerol, 0.1 mg/ml salmon sperm DNA, room temperature; settings: protein: recombinant; 3' overhang 20 nt on strand 2
[14] = target: T2, HpRap1B; test: SPR; kinetic fit; equilibrium Kd 11±1; SPR: 10 mM HEPES-NaOH pH 7.5, 150 mM NaCl, 0.5 mM DTT, 0.05% Tween 20, 1 mg/ml BSA, 0.02 mg/ml salmon sperm DNA; competition 2 nM protein with 20 or 200 nM competitor. EMSA: 20 mM HEPES-NaOH pH 7.5, 50 mM NaCl, 0.2 mg/ml BSA, 5% glycerol, 0.1 mg/ml salmon sperm DNA, room temperature; settings: protein: recombinant; 3' overhang 20 nt on strand 2

B1: SACCE (SPR) (dsDNA)
DNA 1: GTGTGTGGGTGTGTGGGTGTGTG
DNA 2: CACACACCCACACACCCACACACCCTCTACGTCCTCCTGCTCC
Binder B1 has a Kd [1] of 39 ± 15 nM.

B2: RPS0a (dsDNA)
DNA 1: AGAGGGCTGTGCACGGATGCTAT
DNA 2: ATAGCATCCGTGCACAGCCCTCTCCTCTACGTCCTCCTGCTCC
In the case of B2, the Kd [2] is reported as 10 ± 4 nM and the binding result [3] is reported as “no binding”.

B3: FAM-HANPO2 (dsDNA)
DNA 1: GGGTGGCGGGGTGGCG
DNA 2: CGCCACCCCGCCACCC
B3: binds [4]; no binding [5].

B4: VIIrAbs (SPR) (dsDNA)
DNA 1: GGCAGGCGGTGTAGGGATGCGGC
DNA 2: GCCGCATCCCTACACCGCCTGCCCCTCTACGTCCTCCTGCTCC
B4 was tested, and the Kd [6] was 64 ± 2 nM and the Kd [7] was 0.28 ± 0.09 nM.

B5: RPS0b (dsDNA)
DNA 1: ATTTCTTGGTGCGAGGGGGCTCT
DNA 2: AGAGCCCCCTCGCACCAAGAAATCCTCTACGTCCTCCTGCTCC
In the case of B5, the Kd [8] is reported as 1.5 ± 0.4 nM and the binding result [9] is reported as “no binding”.

B6: PICKU (competitor) (dsDNA)
DNA 1: TGAACTAGGAGCGAGGTGTGTTAC
DNA 2: GTAACACACCTCGCTCCTAGTTCA
B6: binds [10]; no binding [11].

B7: RPL5a (dsDNA)
DNA 1: CTTGTGTGGTGCAGGGGTGGCAG
DNA 2: CTGCCACCCCTGCACCACACAAGCCTCTACGTCCTCCTGCTCC
In the case of B7, the Kd [12] is reported as 1.4 ± 0.3 nM and the Kd [13] is reported as 2 nM.

B8: HANPO2 (SPR) (dsDNA)
DNA 1: GGGTGGCGGGGTGGCG
DNA 2: CGCCACCCCGCCACCCCCTCTACGTCCTCCTGCTCC
In the case of B8, the binding result [9] is reported as “no binding” and the Kd [14] is reported as 12 ± 1 nM.
